According to US20230348603A1 (VERSEAU THERAPEUTICS, published 2023):

What was measured:
Human VSIG4-L-Fc [1] = molecular target: T1, Human VSIG4-L-Fc (human); experiment: BLI binning on hVSIG4-L-Fc, competitor 13H11 first;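 further: normalized to binding of second antibody without first competitor antibody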
T1 construct: also called hVSIG4-L-Fc; hVSIG4-L

Human VSIG4-L-Fc [2] = molecular target: T1, Human VSIG4-L-Fc; experiment: BLI binning on hVSIG4-L-Fc, competitor 15C03 first;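 further: normalized to binding of second antibody without first competitor antibody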
Human VSIG4-L-Fc [3] = molecular target: T1, Human VSIG4-L-Fc; experiment: BLI binning on hVSIG4-L-Fc, competitor 16E03 first;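 further: normalized to binding of second antibody without first competitor antibody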
Human VSIG4-L-Fc [4] = molecular target: T1, Human VSIG4-L-Fc; experiment: BLI binning on hVSIG4-L-Fc, competitor 15A06 first;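 further: normalized to binding of second antibody without first competitor antibody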
Human VSIG4-L-Fc [5] = molecular target: T1, Human VSIG4-L-Fc; experiment: ligand blocking of iC3b, IgG
Human VSIG4-L-Fc [6] = molecular target: T1, Human VSIG4-L-Fc; experiment: BLI binning on hVSIG4-L-Fc, competitor 15C04 first;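 further: normalized to binding of second antibody without first competitor antibody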
Human VSIG4-L-Fc [7] = molecular target: T1, Human VSIG4-L-Fc; experiment: ligand competition ELISA (FJB), blocked ligand C3b
Human VSIG4-L-Fc [8] = molecular target: T1, Human VSIG4-L-Fc; experiment: BLI binning on hVSIG4-L-Fc, competitor 12A08 first;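 further: normalized to binding of second antibody without first competitor antibody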
Human VSIG4-L-Fc [9] = molecular target: T1, Human VSIG4-L-Fc; experiment: ligand competition ELISA (FJB), blocked ligand iC3b
Human VSIG4-L-Fc [10] = molecular target: T1, Human VSIG4-L-Fc; experiment: BLI binning on hVSIG4-L-Fc, competitor 12A12 first;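 further: normalized to binding of second antibody without first competitor antibody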
[11] = molecular target: T2, Human VSIG4-L-CHO (human VSIG4 long isoform on CHO-K1 cells) (human, UniProt Q9Y279 20-399); experiment: flow cytometry (FJB), 200 nM mAb, huVSIG4-L CHO-K1 cells
T2 construct: also called hVSIG4-L (flow cytometry)
T2 sequence: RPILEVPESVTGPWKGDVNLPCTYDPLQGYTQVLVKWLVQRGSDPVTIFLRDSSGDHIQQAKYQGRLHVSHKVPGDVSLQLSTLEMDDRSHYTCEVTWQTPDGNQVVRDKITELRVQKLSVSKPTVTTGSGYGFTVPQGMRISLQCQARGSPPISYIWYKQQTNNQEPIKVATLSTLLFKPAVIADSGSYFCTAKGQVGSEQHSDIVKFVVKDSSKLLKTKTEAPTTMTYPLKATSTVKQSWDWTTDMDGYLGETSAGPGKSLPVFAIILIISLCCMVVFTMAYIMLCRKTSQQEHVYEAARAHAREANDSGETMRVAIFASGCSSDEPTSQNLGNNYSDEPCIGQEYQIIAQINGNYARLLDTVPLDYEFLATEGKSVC

Human VSIG4-L-Fc [12] = molecular target: T1, Human VSIG4-L-Fc; experiment: BLI binning on hVSIG4-L-Fc, competitor 14D12 first;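 further: normalized to binding of second antibody without first competitor antibody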
Human VSIG4-L-Fc [13] = molecular target: T1, Human VSIG4-L-Fc; experiment: ligand blocking of C3b, IgG
Human VSIG4-L-Fc [14] = molecular target: T1, Human VSIG4-L-Fc; experiment: BLI binning on hVSIG4-L-Fc, competitor 14C05 first;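 further: normalized to binding of second antibody without first competitor antibody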
[15] = molecular target: T2, Human VSIG4-L-CHO (human VSIG4 long …); experiment: flow cytometry (FJB), 200 nM mAb, huVSIG4-L CHO-K1 over parental CHO-K1
[16] = molecular target: T2, Human VSIG4-L-CHO (human VSIG4 long …); experiment: flow cytometry, CHO-K1 cells expressing hVSIG4-L
[17] = molecular target: T3, Cynomolgus Monkey VSIG4-L-His (cynomolgus monkey); experiment: SPR (FJB)
T3 construct: ECD with His tag; also called cyVSIG4-L; cyno VSIG4-L-His
T3 chain: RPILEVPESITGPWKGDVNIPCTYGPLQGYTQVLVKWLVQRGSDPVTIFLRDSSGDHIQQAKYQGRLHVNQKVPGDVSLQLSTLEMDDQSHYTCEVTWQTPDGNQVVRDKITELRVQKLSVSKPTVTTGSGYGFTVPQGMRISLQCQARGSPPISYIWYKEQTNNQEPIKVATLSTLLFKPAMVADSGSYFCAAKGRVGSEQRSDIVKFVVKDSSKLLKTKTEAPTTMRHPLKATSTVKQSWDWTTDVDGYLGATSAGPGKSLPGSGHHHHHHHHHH

Human VSIG4-L-His [18] = molecular target: T4, Human VSIG4-L-His (human, UniProt Q9Y279 20-283); experiment: SPR (FJB)
T4 construct: long isoform ECD with His tag; also called hVSIG4-L
T4 sequence: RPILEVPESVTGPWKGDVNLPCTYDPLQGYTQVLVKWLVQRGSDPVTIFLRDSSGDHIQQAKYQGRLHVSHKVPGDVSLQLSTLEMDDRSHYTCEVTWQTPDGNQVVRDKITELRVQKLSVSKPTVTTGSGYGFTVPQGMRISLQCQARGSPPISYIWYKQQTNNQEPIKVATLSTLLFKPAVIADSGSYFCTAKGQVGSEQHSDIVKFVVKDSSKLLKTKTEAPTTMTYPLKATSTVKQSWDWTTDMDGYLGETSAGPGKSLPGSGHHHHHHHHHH

Human VSIG4-L-Fc [19] = molecular target: T1, Human VSIG4-L-Fc; experiment: BLI binning on hVSIG4-L-Fc, competitor 16E10 first;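 further: normalized to binding of second antibody without first competitor antibody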
Human VSIG4-S-His = molecular target: T5, Human VSIG4-S-His (human, UniProt Q9Y279 20-283); experiment: BLI (Octet), IgG on AHC sensor, antigen 100 nM
T5 construct: short isoform ECD with His tag; also called hVSIG4-S; VISG4-S-His
T5 sequence: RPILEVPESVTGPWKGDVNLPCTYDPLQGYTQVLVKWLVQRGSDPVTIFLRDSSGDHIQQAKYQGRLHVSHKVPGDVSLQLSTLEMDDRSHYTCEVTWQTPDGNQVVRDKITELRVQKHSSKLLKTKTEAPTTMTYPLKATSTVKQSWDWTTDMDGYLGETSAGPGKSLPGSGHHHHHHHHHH

[20] = molecular target: T3, Cynomolgus Monkey VSIG4-L-His; experiment: BLI (Octet), IgG on AHC sensor, antigen 100 nM
Human VSIG4-L-His [21] = molecular target: T4, Human VSIG4-L-His; experiment: BLI (Octet), IgG on AHC sensor, antigen 100 nM
Mouse VSIG4-His = molecular target: T6, Mouse VSIG4-His (mouse); experiment: ELISA, IgG 50 nM on coated antigen;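 further: Mouse-human chimeric IgG4 antibodies incubated 1 h on plate-coated VSIG4 proteins, bound IgG detected with HRP-labelled anti-human IgG, irrelevant antibody and protein as specificity controls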
T6 construct: ECD with His tag; also called mVSIG4
T6 chain: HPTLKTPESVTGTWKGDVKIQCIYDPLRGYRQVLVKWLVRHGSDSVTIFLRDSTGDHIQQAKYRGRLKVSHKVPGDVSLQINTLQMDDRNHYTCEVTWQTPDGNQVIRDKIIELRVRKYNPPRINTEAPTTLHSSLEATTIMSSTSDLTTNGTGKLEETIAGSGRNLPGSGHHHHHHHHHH

Human VSIG4-S-Fc = molecular target: T7, Human VSIG4-S-Fc (human); experiment: ELISA, IgG 50 nM on coated antigen;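 further: Mouse-human chimeric IgG4 antibodies incubated 1 h on plate-coated VSIG4 proteins, bound IgG detected with HRP-labelled anti-human IgG, irrelevant antibody and protein as specificity controls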
T7 construct: short isoform ECD fused to human Fc1; also called hVSIG4-S

[22] = molecular target: T3, Cynomolgus Monkey VSIG4-L-His; experiment: ELISA, IgG 50 nM on coated antigen;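 further: Mouse-human chimeric IgG4 antibodies incubated 1 h on plate-coated VSIG4 proteins, bound IgG detected with HRP-labelled anti-human IgG, irrelevant antibody and protein as specificity controls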
Human VSIG4-L-Fc [23] = molecular target: T1, Human VSIG4-L-Fc; experiment: ELISA, IgG 50 nM on coated antigen;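 further: Mouse-human chimeric IgG4 antibodies incubated 1 h on plate-coated VSIG4 proteins, bound IgG detected with HRP-labelled anti-human IgG, irrelevant antibody and protein as specificity controls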

T1 sequence (chain, as listed by the source limits assumed): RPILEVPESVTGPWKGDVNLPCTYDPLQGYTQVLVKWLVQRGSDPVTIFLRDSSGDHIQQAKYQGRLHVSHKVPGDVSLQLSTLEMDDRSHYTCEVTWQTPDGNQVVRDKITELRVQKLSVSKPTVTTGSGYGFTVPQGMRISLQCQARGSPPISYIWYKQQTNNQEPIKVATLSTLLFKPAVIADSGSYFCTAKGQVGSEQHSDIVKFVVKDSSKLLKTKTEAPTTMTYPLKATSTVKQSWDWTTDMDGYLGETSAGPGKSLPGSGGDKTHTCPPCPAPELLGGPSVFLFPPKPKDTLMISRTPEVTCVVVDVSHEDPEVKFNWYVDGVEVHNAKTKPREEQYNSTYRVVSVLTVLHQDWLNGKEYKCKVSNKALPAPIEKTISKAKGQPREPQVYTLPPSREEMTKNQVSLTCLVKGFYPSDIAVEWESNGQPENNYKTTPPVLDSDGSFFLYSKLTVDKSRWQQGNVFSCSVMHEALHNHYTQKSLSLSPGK
T7 sequence (chain, as listed by the source limits assumed): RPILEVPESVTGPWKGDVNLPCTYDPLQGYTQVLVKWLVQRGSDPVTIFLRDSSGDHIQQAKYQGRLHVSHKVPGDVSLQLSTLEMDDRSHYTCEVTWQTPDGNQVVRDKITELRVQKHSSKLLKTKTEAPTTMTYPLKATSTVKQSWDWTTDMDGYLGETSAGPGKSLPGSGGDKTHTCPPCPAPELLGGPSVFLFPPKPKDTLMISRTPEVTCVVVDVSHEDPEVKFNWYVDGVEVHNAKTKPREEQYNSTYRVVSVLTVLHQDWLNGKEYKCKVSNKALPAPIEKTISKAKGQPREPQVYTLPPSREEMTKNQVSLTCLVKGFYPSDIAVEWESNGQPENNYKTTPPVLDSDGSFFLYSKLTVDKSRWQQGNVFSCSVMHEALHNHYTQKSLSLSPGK

- normalized maximum binding nm shift (Human VSIG4-L-Fc [1]): 0.69 normalized
- normalized maximum binding nm shift (Human VSIG4-L-Fc [2]): 0.89 normalized
- normalized maximum binding nm shift (Human VSIG4-L-Fc [3]): 0.1 normalized
- normalized maximum binding nm shift (Human VSIG4-L-Fc [4]): 0.76 normalized
- Percent Blocking iC3b (Human VSIG4-L-Fc [5]): 98%
- normalized maximum binding nm shift (Human VSIG4-L-Fc [6]): 0.94 normalized
- IC50 (Human VSIG4-L-Fc [7]): 1 nM
- normalized maximum binding nm shift (Human VSIG4-L-Fc [8]): 0.1 normalized
- IC50 (Human VSIG4-L-Fc [9]): 0.4 nM
- normalized maximum binding nm shift (Human VSIG4-L-Fc [10]): 0.78 normalized
- Binding (200 nM) MFI [11]: 121000 MFI
- normalized maximum binding nm shift (Human VSIG4-L-Fc [12]): 0.7 normalized
- Percent Blocking C3b (Human VSIG4-L-Fc [13]): 96%
- normalized maximum binding nm shift (Human VSIG4-L-Fc [14]): 0.72 normalized
- Binding (200 nM) Fold-Over-Parental [15]: 357 fold
- EC50 [16]: 6.8 nM
- Kd [17]: 3.9 nM
- Kd (Human VSIG4-L-His [18]): 6.7 nM
- normalized maximum binding nm shift (Human VSIG4-L-Fc [19]): 0.44 normalized
- Kd (Human VSIG4-S-His): 18.8 nM
- Kd [20]: 15.7 nM
- Kd (Human VSIG4-L-His [21]): 20.6 nM
- ELISA OD450 (Mouse VSIG4-His): 0.056 OD450
- ELISA OD450 (Human VSIG4-S-Fc): 3.37 OD450
- ELISA OD450 [22]: 4.43 OD450
- ELISA OD450 (Human VSIG4-L-Fc [23]): 4.44 OD450
B1: 12A08 mouse/human chimeric IgG4 (S228P) kappa (antibody, V domains shown)
VH: EVMLVESGGGLVKPGGSLKLSCAASGFTFDDFYMYWVRQTPEKRLEWVASISDGGTYTYYPDSVKGRFTISRDNAKNTLYLQLSSLKSEDTAMYYCARGVDKYYYAMDYWGQGTSVTVSS
VL: QILLTQSPAIMSASPGEKVTITCSASSSVSYMHWFQQKPGTSPKLWIYSTSNLASGVPARFSGSGSGTSYSLTISRMEAEDAATYYCQQRSSYPLTFGAGTKLELKR
